From article PMC3884669 come the findings set out here.

In the assay the target is Drosophila CstF64 (Drosophila (endogenous in Kc cells)) (UniProt Q86NL1). Put plainly: co-IP.

“Drosophila Lsm11 (endogenous) (natural protein)” came in with a percent precipitated by the anti-CstF64 antibody greater than 10%.
